Assay results reported in patent publication US20250242034A1, “PHOSPHORAMIDATE-BASED PSMA-TARGETED SMALL-MOLECULE DRUG CONJUGATES” (priority 2022, published 2025).
Read-outs that look alike come from different tables or passages of the source. Square brackets hold non-standard residues; d marks the D form. Peptide text beside a SMILES is read from it. * marks the point of attachment. Dolaproine = CO[C@@H]([C@@H]1CCCN1)[C@@H](C)C(=O)O; Dil = CC[C@H](C)[C@H](NC)[C@@H](CC(=O)O)OC; X1 = C[C@@H](N*)[C@@H](O)c1ccccc1; NMeV = CN[C@H](C(=O)O)C(C)C

Key:
[1] = tested on: PSMA+ PC3-PIP tumor cells; format: in vivo, NCr nude mice; conditions: n=8; for time until animals reached end point criteria / end point tumor burden after first administration: IV once weekly for 6 weeks, SMDCs 0.8 mg/kg, MMAE 0.2 mg/kg
Description: Efficacy Study Design: NCr nude mice (age 6-8 weeks) injected with 1×10^6 PC3 PiP cells (1:1 in saline with Matrigel, 100 μL total volume) subcutaneously to right rear flank. Tumors were allowed to grow until approximate size of 100 mm^3 (roughly 2-3 weeks) before starting compound treatments. Treatment consisted of an injection of the appropriate compound to the lateral tail vein (100 μL bolus) once a week for the first 6 weeks of the study. Efficacy treatment groups were 8 animals each of: 1) saline, 2) MMAE alone, 0.2 mg/kg (molar equivalent to the MMAE conjugated to the small molecules), 3) CTT1700 (structure noted below), 0.8 mg/kg, 4) 1, 0.8 mg/kg, and 5) 2, 0.8 mg/kg. Tumor sizes were measured twice weekly for the duration of the study and mortality noted for survival curves. Animals were sacrificed if tumor condition reached IACUC standards for euthanasia (tumor burden of >1.5 cm in any axis, ulceration, >20% weight loss). Blood draws were taken via superficial temporal vein at 0, 4, 7 and 10 weeks and CBCs with 3-part differential measured.
(§1) To evaluate efficacy of SMDCs 1 and 2 in preclinical models of human PCa, we employed xenograft tumor models derived from PSMA+ PC3-PIP tumor cells implanted subcutaneously in the right rear flank of NCr nude mice (6-8 weeks old). […] Tumor sizes were measured twice weekly for the duration of the study and mortality noted for survival curves for 90 days after first administration. Animals were euthanized if tumor or mouse condition reached IACUC standards for euthanasia (tumor burden of >1.5 cm in any axis, ulceration, >20% mouse weight loss). Blood draws were taken via superficial temporal vein at 0, 4, 7 and 10 weeks, and complete blood count (CBC) analysis was performed with a 3-part differential measurement.

[2] = Compound residence study (PK): plasma and tissue levels of parent drug and MMAE by LC-MS/MS; format: in vivo, NCr nude mice; conditions: for Tumor AUC0-t, MMAE / Tumor Cmax, MMAE / Tumor AUC0-t, Parent / Tumor Cmax, Parent: PC3-PiP tumor; for Tumor AUC0-t, MMAE / Tumor Cmax, MMAE / Kidney AUC0-t, MMAE / Kidney Cmax, MMAE / Plasma % extrapolated, MMAE: analyte MMAE payload; for fraction of drug that is estimated to release MMAE: calculated from apparent MMAE formation clearance and reported MMAE clearance; for parent drug concentrations in tissues other than tumor: 0.8 mg/kg
Description: Compound Residence study design (PK Studies): Three volumes of PBS, pH 7.4, were added to tumor, kidney, and lacrimal tissues and 10 volumes of PBS, pH 7.4, were added to prostate tissue samples. Tumor, kidney, and prostate samples were homogenized with a homogenizer, and lacrimal tissues were sonicated with a sonicator. Twenty five microliters of plasma or tissue homogenate was added to a microcentrifuge tube followed by 10 μL of internal standard solution and 100 μL of 5 mM ammonium bicarbonate and acetonitrile (25:75 v,v). The sample was then vortexed at a high setting for 1 minute and centrifuged at 17,200×g for 10 minutes. The resultant supernatant was pipetted into an HPLC vial and 10-20 μL was injected into the LC-MS/MS system. […] [^2H8]-MMAE was used as the internal standard for MMAE. […] A SCIEX 6500+ Qtrap LC-MS/MS system consisting of an Agilent (Palo Alto, CA 94036) 1290 HPLC and Sciex 6500+ QTrap mass detector was used for quantitation of MMAE concentrations. The chromatography consisted of a gradient using of 5 mM ammonium bicarbonate and acetonitrile and the separation was achieved using a Phenomenex (Torrance, CA 90501) Kinetex column (2×50 mm, 2.6 μm). […] Standard curves were linear from 10-10,000 ng/mL for CTT1700, SMDCs 2 and 1 while the MMAE standard curves were linear from 0.01 to 10 ng/mL. A 1/y^2 weighted linear regression was used for all standard curves.
PK parameters were estimated using standard noncompartmental methods with Phoenix WinNonlin (Certara, Princeton, NJ). Plasma parent drugs were derived using the IV bolus approach, while all other data were derived using the extravascular approach.
as §1, with “measurement. For biodistribution studies, blood samples were obtained at 1 and 6 h post a single 0.8 mg/kg dose, followed by euthanasia at 24, 72 and 120 h; LC-MS/MS analysis was performed to determine concentrations of SMDC and MMAE in plasma, tumor, lacrimal gland, kidney, and prostate samples.” for “measurement.”

[3] = cited from earlier work
[4] = reported pharmacokinetics of MMAE dosed directly; format: in vivo; conditions: corresponds to 60 mL/h
[5] = molecular target: PSMA (Homo sapiens, UniProt Q04609); experiment: PSMA binding (IC50 values for PSMA)
[6] = 0.8 mg/kg IV once weekly for 6 weeks
[7] = IV 0.8 mg/kg, analyte parent drug
[8] = IV 0.8 mg/kg, kidney, analyte parent drug
[9] = IV 0.8 mg/kg, plasma, analyte parent drug
[10] = NCr nude, mouse, IV 0.8 mg/kg, plasma, analyte parent drug, read-out: Plasma Cmax, Parent

Chain of PSMA (Q04609 whole entry): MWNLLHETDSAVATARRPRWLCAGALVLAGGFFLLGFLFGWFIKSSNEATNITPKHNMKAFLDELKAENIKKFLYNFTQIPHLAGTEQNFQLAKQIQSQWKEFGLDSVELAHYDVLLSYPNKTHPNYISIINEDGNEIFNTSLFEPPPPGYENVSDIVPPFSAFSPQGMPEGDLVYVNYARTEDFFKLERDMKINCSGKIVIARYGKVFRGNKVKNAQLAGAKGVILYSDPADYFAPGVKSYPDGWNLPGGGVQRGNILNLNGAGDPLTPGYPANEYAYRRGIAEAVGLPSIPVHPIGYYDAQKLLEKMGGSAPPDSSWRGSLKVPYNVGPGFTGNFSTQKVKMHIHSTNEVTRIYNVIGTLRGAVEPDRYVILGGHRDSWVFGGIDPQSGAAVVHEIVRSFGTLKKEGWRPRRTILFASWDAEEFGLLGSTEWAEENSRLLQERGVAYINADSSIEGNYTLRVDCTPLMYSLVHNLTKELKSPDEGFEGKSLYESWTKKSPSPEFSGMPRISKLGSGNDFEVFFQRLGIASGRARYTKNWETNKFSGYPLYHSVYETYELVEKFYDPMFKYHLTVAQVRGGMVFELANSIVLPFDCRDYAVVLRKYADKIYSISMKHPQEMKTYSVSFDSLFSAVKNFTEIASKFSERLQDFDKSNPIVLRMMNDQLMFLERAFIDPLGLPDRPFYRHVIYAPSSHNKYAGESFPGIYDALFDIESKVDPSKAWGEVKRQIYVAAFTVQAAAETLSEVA

CC[C@H](C)[C@@H]([C@@H](CC(=O)N1CCC[C@H]1[C@H](OC)[C@@H](C)C(=O)N[C@H](C)[C@@H](O)c1ccccc1)OC)N(C)C(=O)[C@@H](NC(=O)[C@H](C(C)C)N(C)P(=O)(O)OCC[C@H](NC(=O)c1ccc(Cn2nnc3c2-c2ccccc2CN(C(=O)CCC(=O)NCCOCCOCCOCCOCCC(=O)N[C@@H](CCC(=O)NCCCCCC(=O)N[C@@H](CCC(=O)N[C@@H](CCCOP(=O)(O)N[C@@H](CCC(=O)O)C(=O)O)C(=O)O)C(=O)O)C(=O)N[C@H](CCCCNC(=O)CCCc2ccc(I)cc2)C(=O)O)c2ccccc2-3)cc1)C(=O)O)C(C)C [CTT1700, reference compound]
therapeutic efficacy (in words) [1, 6]: moderate efficacy
time until animals reached end point criteria / end point tumor burden after first administration [1]: ≤ 12 weeks
Tumor AUC0-t, MMAE ([2]; IV 0.8 mg/kg): 262 ng·days/g
Tumor Cmax, MMAE ([2]; IV 0.8 mg/kg): 98.7 ng/g
Tumor AUC0-t, Parent [2, 7]: 483 ng·days/g
Tumor Cmax, Parent [2, 7]: 194 ng/g
Kidney AUC0-t, MMAE ([2]; IV 0.8 mg/kg, kidney): 4.00 ng·days/g
Kidney Cmax, MMAE ([2]; IV 0.8 mg/kg, kidney): 1.82 ng/g
Kidney AUC0-t, Parent [2, 8]: 685 ng·days/g
Kidney Cmax, Parent [2, 8]: 400 ng/g
Lacrimal AUC0-t, Parent ([2]; IV 0.8 mg/kg, lacrimal gland, analyte parent drug): 220 ng·days/g
Plasma % extrapolated, MMAE ([2]; IV 0.8 mg/kg, plasma AUC): 28%
Plasma % extrapolated, Parent ([2]; IV 0.8 mg/kg, plasma AUC, analyte parent drug): 1.9%
Plasma AUC0-inf, Parent [2, 9]: 6566 ng·days/mL
Plasma AUC0-t, Parent [2, 9]: 6442 ng·days/mL
Prostate AUC0-t, Parent ([2]; IV 0.8 mg/kg, prostate, analyte parent drug): 647 ng·days/g
Kp ([2]; NCr nude, mouse, kidney/plasma, IV 0.8 mg/kg, analyte parent drug, read-out: Kp (kidney/plasma), Parent): 0.106
Kp ([2]; NCr nude, mouse, lacrimal gland/plasma, IV 0.8 mg/kg, analyte parent drug, read-out: Kp (Lacrimal/plasma), Parent): 0.0342
Kp ([2]; NCr nude, mouse, prostate/plasma, IV 0.8 mg/kg, analyte parent drug, read-out: Kp (prostate/plasma), Parent): 0.1
Kp ([2]; NCr nude, mouse, tumor/plasma, IV 0.8 mg/kg, analyte parent drug, read-out: Kp (tumor/plasma), Parent): 0.075
Cmax ([2]; NCr nude, mouse, IV 0.8 mg/kg, lacrimal gland, analyte parent drug, read-out: Lacrimal Cmax, Parent): 71.9 ng/g
Tmax ([2]; NCr nude, mouse, IV 0.8 mg/kg, plasma, analyte parent drug): 1 h
clearance ([2]; NCr nude, mouse, IV 0.8 mg/kg, plasma, analyte parent drug, read-out: Plasma Cl, Parent (converted)): 5.08 mL/h/kg
Cmax [2, 10]: 7020 ng/mL
Vd ([2]; NCr nude, mouse, IV 0.8 mg/kg, plasma, analyte parent drug, read-out: Plasma Vss, Parent): 0.136 L/kg
half-life ([2]; NCr nude, mouse, IV 0.8 mg/kg, plasma, analyte parent drug, read-out: Plasma t1/2, Parent (converted)): 23 h
Cmax ([2]; NCr nude, mouse, IV 0.8 mg/kg, prostate, analyte parent drug, read-out: Prostate Cmax, Parent): 280 ng/g
fraction of drug that is estimated to release MMAE [2]: 1%

CC[C@H](C)[C@@H]([C@@H](CC(=O)N1CCC[C@H]1[C@H](OC)[C@@H](C)C(=O)N[C@H](C)[C@@H](O)c1ccccc1)OC)N(C)C(=O)[C@@H](NC(=O)[C@@H](NC)C(C)C)C(C)C [MMAE, Monomethyl auristatin E] (H-[NMeV]V[Dil][Dolaproine]-X1)
t1/2 reported for MMAE when dosed directly ([3]; MMAE dosed directly): 4.1 h
reported plasma clearance of MMAE ([3]; in vivo): 60 mL/h
time until animals reached end point criteria / end point tumor burden after first administration [1]: ≤ 6 weeks
reported plasma clearance of MMAE, converted [4]: 1960 mL/h/kg

CC[C@H](C)[C@@H]([C@@H](CC(=O)N1CCC[C@H]1[C@H](OC)[C@@H](C)C(=O)N[C@H](C)[C@@H](O)c1ccccc1)OC)N(C)C(=O)[C@@H](NC(=O)[C@H](C(C)C)N(C)C(=O)OCc1ccc(NC(=O)[C@H](CCCNC(N)=O)NC(=O)[C@@H](NC(=O)c2ccc(Cn3nnc4c3-c3ccccc3CN(C(=O)CCC(=O)NCCOCCOCCOCCOCCC(=O)N[C@@H](CCC(=O)NCCCCCC(=O)N[C@@H](CCC(=O)N[C@@H](CCCOP(=O)(O)N[C@@H](CCC(=O)O)C(=O)O)C(=O)O)C(=O)O)C(=O)N[C@H](CCCCNC(=O)CCCc3ccc(I)cc3)C(=O)O)c3ccccc3-4)cc2)C(C)C)cc1)C(C)C [SMDC 1]
survival 90 days after initial dosing [1, 6]: Six of eight
therapeutic efficacy (in words) [1, 6]: dramatic efficacy compared to controls
tumor growth response [1, 6]: tumor regression was observed following initiation of administration up until 2 weeks after the last dose, with subsequent slow tumor growth
Tumor AUC0-t, MMAE ([2]; IV 0.8 mg/kg): 1652 ng·days/g
Tumor Cmax, MMAE ([2]; IV 0.8 mg/kg): 509 ng/g
Tumor AUC0-t, Parent [2, 7]: 475 ng·days/g
Tumor Cmax, Parent [2, 7]: 122 ng/g
parent drug concentrations in tissues other than tumor [2, 7]: could not be quantified in any other tissue other than the tumor
parent drug concentrations in tissues other than tumor ([2]; IV 0.8 mg/kg, analyte parent drug, listed as VC): VC concentrations in all tissues other than tumor were below the LLOQ.
Kidney AUC0-t, MMAE ([2]; IV 0.8 mg/kg, kidney): 55.5 ng·days/g
Kidney Cmax, MMAE ([2]; IV 0.8 mg/kg, kidney): 30.6 ng/g
distribution volume of parent SMDC ([2]; IV 0.8 mg/kg, plasma): 0.106 L/kg
Plasma % extrapolated, MMAE ([2]; IV 0.8 mg/kg, plasma AUC): 2.9%
absolute tumor MMAE exposure compared to CTT1700 ([2]; IV 0.8 mg/kg, tumor, higher than control SMDC with non-degradable linker): approximately 6 fold
Cmax [2, 10]: < 10 ng/mL
fraction of drug that is estimated to release MMAE [2]: 38%
IC50 ([5]; read-out: IC50 for PSMA): 24.1 ± 2.1 nM

CC[C@H](C)[C@@H]([C@@H](CC(=O)N1CCC[C@H]1[C@H](OC)[C@@H](C)C(=O)N[C@H](C)[C@@H](O)c1ccccc1)OC)N(C)C(=O)[C@@H](NC(=O)[C@H](C(C)C)N(C)C(=O)OCc1ccc(OC(=O)N(C)CCN(C)P(=O)(O)OCC[C@H](NC(=O)c2ccc(Cn3nnc4c3-c3ccccc3CN(C(=O)CCC(=O)NCCOCCOCCOCCOCCC(=O)N[C@@H](CCC(=O)NCCCCCC(=O)N[C@@H](CCC(=O)N[C@@H](CCCOP(=O)(O)N[C@@H](CCC(=O)O)C(=O)O)C(=O)O)C(=O)O)C(=O)N[C@H](CCCCNC(=O)CCCc3ccc(I)cc3)C(=O)O)c3ccccc3-4)cc2)C(=O)O)cc1)C(C)C [SMDC 2]
IC50 [5]: 1.74 ± 0.14 nM
